Measurements published in the supplement of paper PMC5998384.

Tests used:
HeLa Kyoto [1] = assay: thermal stability score vs G1/S (z-score of summed log2 fold changes over temperatures); higher = more thermally stable than in G1/S
HeLa Kyoto [2] = assay: solubility in G1/S (NP-40 vs SDS abundance) (log2 ratio); higher = more soluble; conditions: cell cycle stage: G1/S
HeLa Kyoto [3] = assay: melting temperature (median over replicates), in situ; higher = more thermally stable
HeLa Kyoto [4] = assay: solubility change mitosis vs G1/S (difference of NP-40 vs SDS log2 ratios) (log2 ratio difference); higher = more soluble in mitosis
[5] = cell cycle stage: early G1 (4.5 h after nocodazole release)
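Wherever melting temperature (median over replicates), in situ is given: HeLa Kyoto cells synchronized by double thymidine or nocodazole block, proteins quantified by TMT10plex mass spectrometry, three independent biological replicates.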
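Wherever solubility change mitosis vs G1/S (difference of NP-40 vs SDS log2 ratios) is given: synchronized HeLa Kyoto cells (double thymidine block for G1/S, nocodazole release for mitosis), protein amounts in NP-40 versus SDS lysates quantified by mass spectrometry, three biological replicates.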
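Wherever solubility in G1/S (NP-40 vs SDS abundance) is given: HeLa Kyoto cells arrested at G1/S by double thymidine block, proteins quantified by TMT10plex mass spectrometry in mild NP-40 versus SDS extracts, three biological replicates.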
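Wherever thermal stability score vs G1/S (z-score of summed log2 fold changes over temperatures) is given: synchronized HeLa Kyoto cells, proteins quantified by TMT10plex mass spectrometry, three biological replicates, mitosis taken 0.5 h after nocodazole release, G1/S directly after double thymidine block.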

LRP1, sequence (chain, as listed by the source): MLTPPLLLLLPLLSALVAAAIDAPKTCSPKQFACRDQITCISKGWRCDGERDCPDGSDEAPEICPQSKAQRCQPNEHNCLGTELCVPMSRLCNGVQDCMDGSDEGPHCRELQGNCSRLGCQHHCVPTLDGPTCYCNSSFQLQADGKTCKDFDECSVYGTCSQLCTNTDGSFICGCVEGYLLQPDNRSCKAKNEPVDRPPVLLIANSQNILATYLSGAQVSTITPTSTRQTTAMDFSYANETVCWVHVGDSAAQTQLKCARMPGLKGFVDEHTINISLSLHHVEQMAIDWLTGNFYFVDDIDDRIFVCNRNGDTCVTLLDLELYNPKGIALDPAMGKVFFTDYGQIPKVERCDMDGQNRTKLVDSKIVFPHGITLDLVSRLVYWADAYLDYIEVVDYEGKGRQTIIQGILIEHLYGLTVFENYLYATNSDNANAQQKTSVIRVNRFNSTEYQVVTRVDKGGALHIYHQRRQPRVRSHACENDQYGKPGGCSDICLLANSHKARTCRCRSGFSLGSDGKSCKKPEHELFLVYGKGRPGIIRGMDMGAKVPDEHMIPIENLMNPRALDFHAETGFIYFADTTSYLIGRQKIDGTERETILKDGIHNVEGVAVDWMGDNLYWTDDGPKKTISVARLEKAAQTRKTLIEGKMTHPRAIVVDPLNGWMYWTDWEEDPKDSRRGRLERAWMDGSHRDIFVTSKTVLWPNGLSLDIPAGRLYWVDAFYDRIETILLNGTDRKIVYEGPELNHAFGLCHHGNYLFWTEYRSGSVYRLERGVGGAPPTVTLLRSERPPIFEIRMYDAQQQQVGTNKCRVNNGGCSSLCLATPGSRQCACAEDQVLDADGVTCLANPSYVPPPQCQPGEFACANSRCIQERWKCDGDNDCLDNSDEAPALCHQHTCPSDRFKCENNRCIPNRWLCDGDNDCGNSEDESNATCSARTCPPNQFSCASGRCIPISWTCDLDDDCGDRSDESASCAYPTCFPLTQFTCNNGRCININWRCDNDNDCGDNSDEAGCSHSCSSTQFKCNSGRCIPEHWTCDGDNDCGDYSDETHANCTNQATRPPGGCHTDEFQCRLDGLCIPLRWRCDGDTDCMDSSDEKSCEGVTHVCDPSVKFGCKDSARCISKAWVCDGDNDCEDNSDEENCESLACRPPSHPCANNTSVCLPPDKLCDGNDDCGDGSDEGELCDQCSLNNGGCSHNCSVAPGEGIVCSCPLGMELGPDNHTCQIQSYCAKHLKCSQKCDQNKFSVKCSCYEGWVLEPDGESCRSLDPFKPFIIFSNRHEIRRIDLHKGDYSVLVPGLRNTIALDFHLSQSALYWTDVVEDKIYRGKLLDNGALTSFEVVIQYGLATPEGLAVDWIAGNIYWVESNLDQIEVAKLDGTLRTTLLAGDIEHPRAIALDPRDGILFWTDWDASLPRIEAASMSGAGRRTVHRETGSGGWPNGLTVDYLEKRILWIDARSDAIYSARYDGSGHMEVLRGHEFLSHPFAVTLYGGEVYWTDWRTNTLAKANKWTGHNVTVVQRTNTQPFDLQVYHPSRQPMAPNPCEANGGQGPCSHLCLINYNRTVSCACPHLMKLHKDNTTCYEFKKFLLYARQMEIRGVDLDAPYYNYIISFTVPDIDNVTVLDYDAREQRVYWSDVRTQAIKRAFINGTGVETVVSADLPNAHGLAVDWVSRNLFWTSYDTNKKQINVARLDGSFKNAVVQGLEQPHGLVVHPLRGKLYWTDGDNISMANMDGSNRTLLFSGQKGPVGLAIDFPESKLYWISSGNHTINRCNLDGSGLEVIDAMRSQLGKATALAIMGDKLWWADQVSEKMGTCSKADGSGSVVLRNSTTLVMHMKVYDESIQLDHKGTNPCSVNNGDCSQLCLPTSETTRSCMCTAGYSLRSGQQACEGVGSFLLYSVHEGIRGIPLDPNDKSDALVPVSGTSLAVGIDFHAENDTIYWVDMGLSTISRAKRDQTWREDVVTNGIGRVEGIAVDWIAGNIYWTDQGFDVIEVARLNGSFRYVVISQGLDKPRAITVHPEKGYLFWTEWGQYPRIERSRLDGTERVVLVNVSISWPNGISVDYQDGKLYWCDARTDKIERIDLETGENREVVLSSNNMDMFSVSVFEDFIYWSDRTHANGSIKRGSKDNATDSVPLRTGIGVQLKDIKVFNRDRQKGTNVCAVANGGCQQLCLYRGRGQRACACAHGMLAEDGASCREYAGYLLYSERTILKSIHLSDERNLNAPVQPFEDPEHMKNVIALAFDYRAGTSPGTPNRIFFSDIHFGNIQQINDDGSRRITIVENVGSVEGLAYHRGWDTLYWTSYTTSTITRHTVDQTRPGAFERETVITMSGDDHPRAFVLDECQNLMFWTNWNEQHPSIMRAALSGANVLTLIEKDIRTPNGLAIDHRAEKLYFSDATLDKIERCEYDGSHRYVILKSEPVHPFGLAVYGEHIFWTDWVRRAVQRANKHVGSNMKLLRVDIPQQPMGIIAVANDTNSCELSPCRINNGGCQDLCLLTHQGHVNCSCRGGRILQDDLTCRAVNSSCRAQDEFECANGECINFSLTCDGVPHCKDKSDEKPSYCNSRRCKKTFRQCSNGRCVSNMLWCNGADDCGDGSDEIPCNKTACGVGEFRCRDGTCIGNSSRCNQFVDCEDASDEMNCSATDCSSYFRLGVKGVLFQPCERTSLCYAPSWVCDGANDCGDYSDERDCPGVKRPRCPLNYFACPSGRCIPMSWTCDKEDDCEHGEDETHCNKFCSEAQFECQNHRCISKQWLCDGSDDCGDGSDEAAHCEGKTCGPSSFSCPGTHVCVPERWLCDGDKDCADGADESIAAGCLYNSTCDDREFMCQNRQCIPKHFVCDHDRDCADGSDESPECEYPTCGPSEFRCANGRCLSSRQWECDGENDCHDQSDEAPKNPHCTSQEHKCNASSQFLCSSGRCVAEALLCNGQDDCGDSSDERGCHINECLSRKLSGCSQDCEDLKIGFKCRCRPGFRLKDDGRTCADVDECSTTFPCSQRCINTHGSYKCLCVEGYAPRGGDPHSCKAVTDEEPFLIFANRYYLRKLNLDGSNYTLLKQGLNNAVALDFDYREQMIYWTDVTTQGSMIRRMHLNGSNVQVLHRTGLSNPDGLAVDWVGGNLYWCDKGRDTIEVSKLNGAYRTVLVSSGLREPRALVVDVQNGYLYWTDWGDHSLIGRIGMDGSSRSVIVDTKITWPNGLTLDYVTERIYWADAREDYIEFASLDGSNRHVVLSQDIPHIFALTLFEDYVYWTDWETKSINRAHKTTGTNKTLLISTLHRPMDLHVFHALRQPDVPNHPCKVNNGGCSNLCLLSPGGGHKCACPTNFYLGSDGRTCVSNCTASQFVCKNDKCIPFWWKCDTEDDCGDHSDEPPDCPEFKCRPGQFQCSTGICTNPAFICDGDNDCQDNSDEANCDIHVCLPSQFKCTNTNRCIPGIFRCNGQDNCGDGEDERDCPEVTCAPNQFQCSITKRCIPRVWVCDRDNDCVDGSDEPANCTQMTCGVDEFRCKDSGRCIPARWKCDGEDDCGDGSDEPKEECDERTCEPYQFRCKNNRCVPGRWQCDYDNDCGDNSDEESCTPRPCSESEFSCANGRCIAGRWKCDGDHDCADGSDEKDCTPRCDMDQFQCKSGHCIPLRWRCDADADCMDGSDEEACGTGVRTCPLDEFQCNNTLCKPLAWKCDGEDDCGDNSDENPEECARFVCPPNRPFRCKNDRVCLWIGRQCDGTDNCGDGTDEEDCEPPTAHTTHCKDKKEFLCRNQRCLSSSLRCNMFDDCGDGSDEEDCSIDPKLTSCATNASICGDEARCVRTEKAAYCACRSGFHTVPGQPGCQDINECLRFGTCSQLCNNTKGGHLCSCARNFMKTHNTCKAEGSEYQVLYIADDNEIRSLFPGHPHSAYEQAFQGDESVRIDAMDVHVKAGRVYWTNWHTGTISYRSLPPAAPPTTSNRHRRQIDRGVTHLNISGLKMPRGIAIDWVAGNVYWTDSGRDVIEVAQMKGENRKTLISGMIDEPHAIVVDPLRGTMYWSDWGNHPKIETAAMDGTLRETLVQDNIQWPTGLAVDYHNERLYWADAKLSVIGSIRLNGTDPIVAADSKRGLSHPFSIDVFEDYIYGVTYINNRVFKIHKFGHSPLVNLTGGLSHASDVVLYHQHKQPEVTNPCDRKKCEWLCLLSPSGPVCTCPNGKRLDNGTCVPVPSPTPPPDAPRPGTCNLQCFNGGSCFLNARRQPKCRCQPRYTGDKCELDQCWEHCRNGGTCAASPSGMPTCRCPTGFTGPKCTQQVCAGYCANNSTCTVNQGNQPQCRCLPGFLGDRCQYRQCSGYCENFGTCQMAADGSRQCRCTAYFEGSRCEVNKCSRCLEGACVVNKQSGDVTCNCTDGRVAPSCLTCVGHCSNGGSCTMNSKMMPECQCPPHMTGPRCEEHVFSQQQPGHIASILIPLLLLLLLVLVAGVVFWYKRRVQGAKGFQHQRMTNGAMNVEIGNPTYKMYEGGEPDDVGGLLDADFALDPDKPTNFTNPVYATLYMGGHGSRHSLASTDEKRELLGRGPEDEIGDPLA

Substance	thermal stability score (HeLa Kyoto [1]; [5])	thermal stability score (HeLa Kyoto [1]; cell cycle stage: mitosis)	solubility in G1/S (log2) (HeLa Kyoto [2])	melting temperature (HeLa Kyoto [3]; cell cycle stage: G1/S) [°C]	melting temperature (HeLa Kyoto [3]; cell cycle stage: mitosis) [°C]	solubility change mitosis (log2) (HeLa Kyoto [4])
MASLSLAPVNIFKAGADEERAETARLTSFIGAIAIGDLVKSTLGPKGMDKILLSSGRDASLMVTNDGATILKNIGVDNPAAKVLVDMSRVQDDEVGDGTTSVTVLAAELLREAESLIAKKIHPQTIIAGWREATKAAREALLSSAVDHGSDEVKFRQDLMNIAGTTLSSKLLTHHKDHFTKLAVEAVLRLKGSGNLEAIHIIKKLGGSLADSYLDEGFLLDKKIGVNQPKRIENAKILIANTGMDTDKIKIFGSRVRVDSTAKVAEIEHAEKEKMKEKVERILKHGINCFINRQLIYNYPEQLFGAAGVMAIEHADFAGVERLALVTGGEIASTFDHPELVKLGSCKLIEEVMIGEDKLIHFSGVALGEACTIVLRGATQQILDEAERSLHDALCVLAQTVKDSRTVYGGGCSEMLMAHAVTQLANRTPGKEAVAMESYAKALRMLPTIIADNAGYDSADLVAQLRAAHSEGNTTAGLDMREGTIGDMAILGITESFQVKRQVLLSAAEAAEVILRVDNIIKAAPRKRVPDHHPC [CCT2]	-0.324	-1.07	0.193	54.1	53.1	-0.0739
MSSNECFKCGRSGHWARECPTGGGRGRGMRSRGRGGFTSDRGFQFVSSSLPDICYRCGESGHLAKDCDLQEDACYNCGRGGHIAKDCKEPKREREQCCYNCGKPGHLARDCDHADEQKCYSCGEFGHIQKDCTKVKCYRCGETGHVAINCSKTSEVNCYRCGESGHLARECTIEATA [CNBP]	-1.16	-2.48	-0.223	57.6	58.8	-0.0883
MSKSESPKEPEQLRKLFIGGLSFETTDESLRSHFEQWGTLTDCVVMRDPNTKRSRGFGFVTYATVEEVDAAMNARPHKVDGRVVEPKRAVSREDSQRPGAHLTVKKIFVGGIKEDTEEHHLRDYFEQYGKIEVIEIMTDRGSGKKRGFAFVTFDDHDSVDKIVIQKYHTVNGHNCEVRKALSKQEMASASSSQRGRSGSGNFGGGRGGGFGGNDNFGRGGNFSGRGGFGGSRGGGGYGGSGDGYNGFGNDGGYGGGGPGYSGGSRGYGSGGQGYGNQGSGYGGSGSYDSYNNGGGGGFGGGSGSNFGGGGSYNDFGNYNNQSSNFGPMKGGNFGGRSSGPYGGGGQYFAKPRNQGGYGGSSSSSSYGSGRRF [HNRNPA1]	-0.92	1.18	-0.184	49.4	50.1	0.275
MLPLSIKDDEYKPPKFNLFGKISGWFRSILSDKTSRNLFFFLCLNLSFAFVELLYGIWSNCLGLISDSFHMFFDSTAILAGLAASVISKWRDNDAFSYGYVRAEVLAGFVNGLFLIFTAFFIFSEGVERALAPPDVHHERLLLVSILGFVVNLIGIFVFKHGGHGHSHGSGHGHSHSLFNGALDQAHGHVDHCHSHEVKHGAAHSHDHAHGHGHFHSHDGPSLKETTGPSRQILQGVFLHILADTLGSIGVIASAIMMQNFGLMIADPICSILIAILIVVSVIPLLRESVGILMQRTPPLLENSLPQCYQRVQQLQGVYSLQEQHFWTLCSDVYVGTLKLIVAPDADARWILSQTHNIFTQAGVRQLYVQIDFAAM [SLC30A7]	0.255	-1.45	0.101	57.8	55.4	-0.278
FAM98A	-1.25	-0.239	-0.0181	53.4	51.3	0.324
MPAVSLPPKENALFKRILRCYEHKQYRNGLKFCKQILSNPKFAEHGETLAMKGLTLNCLGKKEEAYELVRRGLRNDLKSHVCWHVYGLLQRSDKKYDEAIKCYRNALKWDKDNLQILRDLSLLQIQMRDLEGYRETRYQLLQLRPAQRASWIGYAIAYHLLEDYEMAAKILEEFRKTQQTSPDKVDYEYSELLLYQNQVLREAGLYREALEHLCTYEKQICDKLAVEETKGELLLQLCRLEDAADVYRGLQERNPENWAYYKGLEKALKPANMLERLKIYEEAWTKYPRGLVPRRLPLNFLSGEKFKECLDKFLRMNFSKGCPPVFNTLRSLYKDKEKVAIIEELVVGYETSLKSCRLFNPNDDGKEEPPTTLLWVQYYLAQHYDKIGQPSIALEYINTAIESTPTLIELFLVKAKIYKHAGNIKEAARWMDEAQALDTADRFINSKCAKYMLKANLIKEAEEMCSKFTREGTSAVENLNEMQCMWFQTECAQAYKAMNKFGEALKKCHEIERHFIEITDDQFDFHTYCMRKITLRSYVDLLKLEDVLRQHPFYFKAARIAIEIYLKLHDNPLTDENKEHEADTANMSDKELKKLRNKQRRAQKKAQIEEEKKNAEKEKQQRNQKKKKDDDDEEIGGPKEELIPEKLAKVETPLEEAIKFLTPLKNLVKNKIETHLFAFEIYFRKEKFLLMLQSVKRAFAIDSSHPWLHECMIRLFNTAVCESKDLSDTVRTVLKQEMNRLFGATNPKNFNETFLKRNSDSLPHRLSAAKMVYYLDPSSQKRAIELATTLDESLTNRNLQTCMEVLEALYDGSLGDCKEAAEIYRANCHKLFPYALAFMPPGYEEDMKITVNGDSSAEAEELANEI [NAA15]	0.92	-0.18	-0.262	53.9	52.5	-0.124
LRP1	-1.09	-1.22	-0.0261	55.5	55.1	-0.0628
MEFAAENEGKSGGGLHSVAEGVRLSPEPGREGVRDLAGAEEFGGGEEGTGLTGIKEIGDGEEGSGQRPEEIPMDLTVVKQEIIDWPGTEGRLAGQWVEQEVEDRPEVKDENAGVLEVKQETDSSLVVKEAKVGEPEVKEEKVKEEVMDWSEVKEEKDNLEIKQEEKFVGQCIKEELMHGECVKEEKDFLKKEIVDDTKVKEEPPINHPVGCKRKLAMSRCETCGTEEAKYRCPRCMRYSCSLPCVKKHKAELTCNGVRDKTAYISIQQFTEMNLLSDYRFLEDVARTADHISRDAFLKRPISNKYMYFMKNRARRQGINLKLLPNGFTKRKENSTFFDKKKQQFCWHVKLQFPQSQAEYIEKRVPDDKTINEILKPYIDPEKSDPVIRQRLKAYIRSQTGVQILMKIEYMQQNLVRYYELDPYKSLLDNLRNKVIIEYPTLHVVLKGSNNDMKVLHQVKSESTKNVGNEN [ZNHIT6]	1.3	2.06	0.0397	48.4	50.2	-0.116
MSLRKQTPSDFLKQIIGRPVVVKLNSGVDYRGVLACLDGYMNIALEQTEEYVNGQLKNKYGDAFIRGNNVLYISTQKRRM [LSM6]	-1.66	-2.63	0.0787	57.7	54	0.276
MRGFGPGLTARRLLPLRLPPRPPGPRLASGQAAGALERAMDELLRRAVPPTPAYELREKTPAPAEGQCADFVSFYGGLAETAQRAELLGRLARGFGVDHGQVAEQSAGVLHLRQQQREAAVLLQAEDRLRYALVPRYRGLFHHISKLDGGVRFLVQLRADLLEAQALKLVEGPDVREMNGVLKGMLSEWFSSGFLNLERVTWHSPCEVLQKISEAEAVHPVKNWMDMKRRVGPYRRCYFFSHCSTPGEPLVVLHVALTGDISSNIQAIVKEHPPSETEEKNKITAAIFYSISLTQQGLQGVELGTFLIKRVVKELQREFPHLGVFSSLSPIPGFTKWLLGLLNSQTKEHGRNELFTDSECKEISEITGGPINETLKLLLSSSEWVQSEKLVRALQTPLMRLCAWYLYGEKHRGYALNPVANFHLQNGAVLWRINWMADVSLRGITGSCGLMANYRYFLEETGPNSTSYLGSKIIKASEQVLSLVAQFQKNSKL [MLYCD]	-0.712	-1.19	0.0216	52.7	54.3	-0.194
MSVVGLDVGSQSCYIAVARAGGIETIANEFSDRCTPSVISFGSKNRTIGVAAKNQQITHANNTVSNFKRFHGRAFNDPFIQKEKENLSYDLVPLKNGGVGIKVMYMGEEHLFSVEQITAMLLTKLKETAENSLKKPVTDCVISVPSFFTDAERRSVLDAAQIVGLNCLRLMNDMTAVALNYGIYKQDLPSLDEKPRIVVFVDMGHSAFQVSACAFNKGKLKVLGTAFDPFLGGKNFDEKLVEHFCAEFKTKYKLDAKSKIRALLRLYQECEKLKKLMSSNSTDLPLNIECFMNDKDVSGKMNRSQFEELCAELLQKIEVPLYSLLEQTHLKVEDVSAVEIVGGATRIPAVKERIAKFFGKDISTTLNADEAVARGCALQCAILSPAFKVREFSVTDAVPFPISLIWNHDSEDTEGVHEVFSRNHAAPFSKVLTFLRRGPFELEAFYSDPQGVPYPEAKIGRFVVQNVSAQKDGEKSRVKVKVRVNTHGIFTISTASMVEKVPTEENEMSSEADMECLNQRPPENPDTDKNVQQDNSEAGTQPQVQTDAQQTSQSPPSPELTSEENKIPDADKANEKKVDQPPEAKKPKIKVVNVELPIEANLVWQLGKDLLNMYIETEGKMIMQDKLEKERNDAKNAVEEYVYEFRDKLCGPYEKFICEQDHQNFLRLLTETEDWLYEEGEDQAKQAYVDKLEELMKIGTPVKVRFQEAEERPKMFEELGQRLQHYAKIAADFRNKDEKYNHIDESEMKKVEKSVNEVMEWMNNVMNAQAKKSLDQDPVVRAQEIKTKIKELNNTCEPVVTQPKPKIESPKLERTPNGPNIDKKEEDLEDKNNFGAEPPHQNGECYPNEKNSVNMDLD [HSPH1]	1.34	1.52	0.203	50.2	49.7	-0.0593
